Measurements published in PMC10757926 (2023).
Like-named read-outs stand apart in the source and are kept apart here.

B1: hSIRPα Nb S43 (VHH)
VHH: HVQLVESGGGLVQPGGSARLSCAASGFDLDYFAIGWFRQAPGKEREGVSCISTRSETTNYVDSVKGRFTISRDNAISTVYLQMNNLKPEDTAVYYCAADWADWTMTGCQMTWDDYNYWGQGAQVTVSS
B2: hSIRPα Nb S7 (VHH)
VHH: HVQLVESGGGLVQVGDSLRLSCAPSGRTFRAYAMAWFRQAPGKEREFVAAIRWIGGTPSYKDSVKGRFTISRDNARNTFYLQMNSLEPQDTGVYYCAAEETQKGSGLGHDGRHYDYWGQGTPVTVSS
B3: hSIRPα Nb S41 (VHH)
VHH: HVQLVESGGGLVQPGGSLRLSCAASGETLDYYAIGYVRQAPGKEREGVSCISSRGDNTNYADSVKGRFTISRDNANNTVYLQMNSLKPEDTAVYYCVAIKDSWQNYYCSVGWVEYDVWGQGTQVTVSS
B4: hSIRPα Nb S17 (VHH)
VHH: QVQLVESGGGLVQPGGSLRLSCAASGFTLDSYVIGWFRQAPGKEREGVSCISQRIGSTDYADSVKGRFTISKDNAKNTAYLQMNALKPEDTAVYYCAAGRLYYSGTYCPQGGMSYWGKGSPVTVSS
B5: hSIRPα Nb S29 (VHH)
VHH: EVQLVESGGGLVQPGGSLRLSCAASGFTSETYAIGWFRQAPGKEREGVSCISNDGGSRNYADSVKGRFTISRDNAKNTSYLQMNSLKPEDTAVYYCAAGKYYYCLGYVSDGMDYWGKGTPVTVSS
B6: hSIRPα Nb S12 (VHH)
VHH: QVQLVESGGGLVQPGGSLRLSCLVSGFSSSYYAIGWFRQAPGKEREGVSCITRSGDTTNYADSVKGRFTISRDDARNTVYLQMNSLKTEDTAVYSCALWAWAGSGRLRCTASEYGHWGQGTQVTVSS
B7: hSIRPα Nb S14 (VHH)
VHH: EVQLVESGGGLVQPGGSLRLSCAASGFTANSYRMTWVRQAPGKGLEWVADIGTGNEWKYYPDSVKGRFTISRDAAKNTVYLQMNSLKPEDTAVYYCAKNGAVWYGEDGLDYWGKGTLVTVSS
B8: hSIRPα Nb S33 (VHH)
VHH: EVQLVESGGGLVQPGGSLRLSCTTSGFTLDYYSVGWFRQAPGKEREGVSCITASGSSTNYANSVKGRFTISRDKVKNTVYLQMSSLKPEDTAVYYCAAEPCTVVAGILQAPTSDFGSWGQGTQVTVSS
B9: hSIRPα-S36 Nb (VHH)
VHH: EVQLVESGGGLVQPGGSLRLSCAASGFTLDYYAIGWFRQVPGKEREGVSCISSDGGGNTYYADSVKGRFTISRDNAKNTVYLQMNSLKPEDSAVYSCAAGPTYYSGSYCRDPHSDYDYWGQGTQVTVSS
B10: hSIRPα Nb S21 (VHH)
VHH: DVQLVESGGGLVQPGGSLTLSCAASGFTSGTYALAYFRQAPGKEREGVSCISNDGGSRNYADSVKGRFTISRDNAKNTMYLQMNSLKPEDTAVYYCAAGPWYYCSDFARRPDGMDYWGKGTPVTVSS
B11: hSIRPα Nb S45 (VHH)
VHH: HVQLVESGGGLVQPGGSLRLSCAARGFSFRDSAMSWARQAPGKGLEWVGAIYSDGSTVYEKSVKGRFTISRDNAKNTMYLQMHSLKPEDSARYYCAPKGVVADEGDYSGQGTLVTVSS
B12: hSIRPα Nb S8 (VHH)
VHH: QVQLVESGGGLVQPGGSLRLSCADSEFRLDEYATGWFRQAPGKEREGVACISRSGSNTKYTDSVKGRFTISRDNAKKTVYLQMNSLKPEDTAVYYCAADLTSHYLSCSSYTDYNSWGQGTQVTVSS
B13: hSIRPα-S36K>R Nb (VHH)
VHH: EVQLVESGGGLVQPGGSLRLSCAASGFTLDYYAIGWFRQVPGREREGVSCISSDGGGNTYYADSVRGRFTISRDNARNTVYLQMNSLRPEDSAVYSCAAGPTYYSGSYCRDPHSDYDYWGQGTQVTVSS
B14: hSIRPα Nb S44 (VHH)
VHH: QVQLQESGGGLVQPGGSLRLACAASGFTFSSYDMSWVRQAPGKGLEWVSDIKSGGGRTYYADSVKGRFTISRDNAKNTVYLQMNSLKPEDTAVYYCGSLDNSGAYTGGGQGSQVTVSS

Tests used:
Assay in all cases: BLI
[1] = target: T1, biotinylated recombinant hSIRPα (extracellular portion) (human, UniProt P78324 31-373, biotin (Sulfo-NHS-LC-LC-Biotin))
[2] = target: T1, biotinylated recombinant hSIRPα …; remark: listed apart in the source
[3] = target: T1, biotinylated recombinant hSIRPα …; remark: listed apart in the source

T1 sequence (P78324 31-373): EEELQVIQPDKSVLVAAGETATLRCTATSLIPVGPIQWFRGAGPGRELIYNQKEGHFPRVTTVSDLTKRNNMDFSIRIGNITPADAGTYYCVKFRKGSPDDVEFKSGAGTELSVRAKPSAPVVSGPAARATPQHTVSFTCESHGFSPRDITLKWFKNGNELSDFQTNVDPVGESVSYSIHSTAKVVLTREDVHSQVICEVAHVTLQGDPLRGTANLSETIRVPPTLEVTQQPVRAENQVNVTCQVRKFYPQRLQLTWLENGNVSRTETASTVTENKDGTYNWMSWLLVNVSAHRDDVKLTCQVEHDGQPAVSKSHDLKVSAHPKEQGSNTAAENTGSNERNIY

Binder | Kd [1] | koff [2] | Kd [3]
B1 | 99 nM | 0.131 s⁻¹ | –
B2 | 20 nM | 0.0123 s⁻¹ | –
B3 | 5.65 nM | 0.00383 s⁻¹ | –
B4 | 26.6 nM | 0.00458 s⁻¹ | –
B5 | 4.78 nM | 0.00462 s⁻¹ | –
B6 | 25.9 nM | 0.0127 s⁻¹ | –
B7 | 16.7 nM | 0.00376 s⁻¹ | –
B8 | 20 nM | 0.00544 s⁻¹ | –
B9 | 0.12 nM | 0.0002 s⁻¹ | –
B10 | 2.56 nM | – | –
B11 | 2.53 nM | 0.00164 s⁻¹ | –
B12 | 0.46 nM | 0.0009 s⁻¹ | –
B13 | – | – | 0.19 nM
B14 | 4.61 nM | 0.00915 s⁻¹ | –
